Assay [1] addresses GST-ErpQ (Borrelia burgdorferi strain B31). The experiment in a line: SPR. (In general: SPR reads the build-up and loss of mass on a sensor chip optically.)
Assay [2] has as its target GST-ErpB (Borrelia burgdorferi strain B31). Description: SPR.

B1: C1s enzyme (activated form of human C1s) (enzyme)
chain 1: EPTMYGEILSPNYPQAYPSEVEKSWDIEVPEGYGIHLYFTHLDIELSENCAYDSVQIISGDTEEGRLCGQRSSNNPHSPIVEEFQVPYNKLQVIFKSDFSNEERFTGFAAYYVATDINECTDFVDVPCSHFCNNFIGGYFCSCPPEYFLHDDMKNCGVNCSGDVFTALIGEIASPNYPKPYPENSRCEYQIRLEKGFQVVVTLRREDFDVEAADSAGNCLDSLVFVAGDRQFGPYCGHGFPGPLNIETKSNALDIIFQTDLTGQKKGWKLRYHGDPMPCPKEDTPNSVWEPAKAKYVFRDVVQITCLDGFEVVEGRVGATSFYSTCQSNGKWSNSKLKCQPVDCGIPESIENGKVEDPESTLFGSVIRYTCEEPYYYMENGGGGEYHCAGNGSWVNEVLGPELPKCVPVCGVPREPFEEKQR
chain 2: IIGGSDADIKNFPWQVFFDNPWAGGALINEYWVLTAAHVVEGNREPTMYVGSTSVQTSRLAKSKMLTPEHVFIHPGWKLLEVPEGRTNFDNDIALVRLKDPVKMGPTVSPICLPGTSSDYNLMDGDLGLISGWGRTEKRDRAVRLKAARLPVAPLRKCKEVKVEKPTADAEAYVFTPNMICAGGEKGMDSCKGDSGGAFAVQDPNDKTKFYAAGLVSWGPQCGTYGLYTRVKNYVDWIMKTMQENSTPRED
As to B1, the Kd in assay [1] was determined as 4.5 nM; in assay [2] it was 3.9 nM.

B2: C1r enzyme (activated form of human C1r) (enzyme)
chain 1: SIPIPQKLFGEVTSPLFPKPYPNNFETTTVITVPTGYRVKLVFQQFDLEPSEGCFYDYVKISADKKSLGRFCGQLGSPLGNPPGKKEFMSQGNKMLLTFHTDFSNEENGTIMFYKGFLAYYQAVDLDECASRSKSGEEDPQPQCQHLCHNYVGGYFCSCRPGYELQEDTHSCQAECSSELYTEASGYISSLEYPRSYPPDLRCNYSIRVERGLTLHLKFLEPFDIDDHQQVHCPYDQLQIYANGKNIGEFCGKQRPPDLDTSSNAVDLLFFTDESGDSRGWKLRYTTEIIKCPQPKTLDEFTIIQNLQPQYQFRDYFIATCKQGYQLIEGNQVLHSFTAVCQDDGTWHRAMPRCKIKDCGQPRNLPNGDFRYTTTMGVNTYKARIQYYCHEPYYKMQTRAGSRESEQGVYTCTAQGIWKNEQKGEKIPRCLPVCGKPVNPVEQRQR
chain 2: IIGGQKAKMGNFPWQVFTNIHGRGGGALLGDRWILTAAHTLYPKEHEAQSNASLDVFLGHTNVEELMKLGNHPIRRVSVHPDYRQDESYNFEGDIALLELENSVTLGPNLLPICLPDNDTFYDLGLMGYVSGFGVMEEKIAHDLRFVRLPVANPQACENWLRGKNRMDVFSQNMFCAGHPSLKQDACQGDSGGVFAVRDPNTDRWVATGIVSWGIGCSRGYGFYTKVLNYVDWIKKEMEEED
Regarding B2, the Kd in assay [1] is 97 nM; in assay [2] it was 100 nM.

The Kd is the free concentration of one partner at which half of the binding sites on the other are occupied at equilibrium, for simple one-to-one binding. Low values mean higher affinity, high ones lower affinity.

These data come from article doi:10.1101/2021.09.23.461563.
